The series deals with HEK293T. In words: median enrichment of reporter reads in eGFP-reduced (low/intermediate) vs eGFP-high sorted cells (eGFP-extension fusion abundance) (ratio); higher = stronger loss of eGFP-fusion protein abundance (more destabilising extension).
Regarding “SEEPQDHTHSPYPPQDYRTFWHTLYRVLGFTPQNDPTMSTHHQNPANGPPLPPSPDAEMVMGSWRVGSEMKGTPQWAAGPIFP [SLC13A5]”, the median enrichment turned out to be 3.6.
For the substance “YQGPSQYPWRTREIAPYRQWRGVPSHRQEPEAQAAHPFQPSRTHTDGREGGHSMNYC [XYLT2]”, the median enrichment worked out at 1.21.
Regarding “YTAQGSPTQAPTLLLLALLPASVQRTGRYWWEALCLAPQLPVWASKHNGPSRSLVETGVVVPNLPSALPLHRTQRPQALQGVL [AMIGO3]”, the median enrichment was found to be 8.02.
Regarding “EDPGTQRLCPPRPQSVPITLTVLHTVHAPLLAFFREKENFTTGSH [SERTAD2]”, the median enrichment was 6.58.
For the substance YAPL [SLC3A1], the median enrichment was 0.632.
To RSNLYVLPKKPKTAFD [C2orf15] belongs 1.27; to YRCEGIGETLGWLVMVSIAGHQKLDS [B4GALNT2], 17.4.
The same measure for SQDLVGGTGNWGWEGGNKDIWPS [RNF25]: 1.76; for “YALNINSVLQIFITYLLQSQNPKIFIKSKYLMSFEGSLSYTK [C10orf88]”: 1.47.
Consider CCCCCCCCC [Cys09], for which the median enrichment stood at 7.96.
To YIPNILGL [RASEF] belongs 10.1; to “ECPLFLFLLSPFSSLRSIGPLLSIFITRCFPLKHAHATVTKTNNYHFPNFIQNHFSVFLFPTPPTTFNDEIP [PHYHIPL]”, 15.5; to “AESLGSDLAAWGESLGSVLAAWGAGIAQSMNGPTPAKAESLGPVSPAAHGTGIAHGVRSVHLQGLRPWAQSALLLRVQALHMV [WNT9A]”, 7.26.
To WSLVTPIEI [OR52A5] belongs 7.53; to “CSDGGWSLSESSALPSPGDEGNSLCFAEKILWINTEAPATPEGWRLLSLPILQSGSKPSKTAPEHCFSWVQS [C3orf52]”, 13.3; to “RGPPLAKACGRRWRPSLGRFQGASGKPDGCWWPFPRGLVSGPAQSLLRGRGWRLGSPACLAPPSERAALLSY [ARL6IP4]”, 10.9.
The same measure for QFLC [BEST3]: 0.953.
With LKEIWEIL [ZNF418], the median enrichment turned out to be 16.1.
The same measure for “WWWRHAQWMILLLPATSTSRNESLGGCQELVLAPPPP [MAP4K1]”: 13; for “WGGVGPGRAGVCWHRQPPLWALGGPLKGSPTRGPDESFLSGVGSQRGSPPAAWGRAWPGRVIQRVCQPLTGSPSVAATRSTEL [FAM53B]”: 5.84.
The same measure for SQAGMSPGSLARVGPQ [TXN2]: 0.38; for WRFPLPSSQPP [MEF2D]: 2.36.
In the case of YSTVI [C5orf15], the median enrichment turned out to be 0.763.
Take “GVSGGEERRADLGRALRTWPRARDSPGSSSPWQAQQHVPQIWKGLPLCQCLGGCHGCPHPLLSVCGVEEPTPASCQDHLGGHT [GPRC5C]”: the median enrichment was found to be 1.27.
“ECPARAAAPATLPRVAFRAAPRVGNLGARGGRLGVPFFFSFSFAFRLFYFFLK”: the median enrichment was 15.7.
To WARSTGPDEWIFTTFTRL [CD8B] belongs 7.72; to CCQDSCALRCK [MT1X], 0.374; to QCHLLSPTTP [PPY], 0.404.
To QSIQQSLIRHAKI [SDHAF3] belongs 4.37; to RSRVFQVPGPWL [MYL4], 1.67.
To RHRGKRRKSC [CLDN1] belongs 0.381.
For GNWD [PIK3C3], the median enrichment came out at 0.441.
To CPLNAANSASRTPNNSA [OR2AT4] belongs 0.496; to PPPPPPP [Pro07], 1.37.
Turning to RTQTPQSSRLALLRLRGPQKSPPK [TSGA13], the median enrichment was found to be 9.36.
As to “SPERSQDPSRQHQLTDALVVPPSSPDCARSAVPSSGHLSSLWVPPHPSPC [RBP5]”, the median enrichment came to 3.81.
To “RKPLNVRNVGRPFNIITNFMDIIDFIFVRTLMNVKDVGNALPVVETLEYIREFILVRNHINVKNVGKPLVIVQTC [ZNF780B]” belongs 7.09; to TSLYKKVGMGRK [Degron APPBP2], 14.1; to WLQPAKSILLFHFFHDGAV [CTSK], 8.37.
The same measure for PPPP [Pro04]: 0.659; for RESLHLEITTGYASGI [ZNF41]: 5.83.
Take YRKGW [C9orf131]: the median enrichment was determined as 0.926.
The same measure for LLEWIYDVPLRRSISATILI [HMGCLL1]: 20.6; for “YNQGSVTPCHAPTVEIPPLLKFFMVVSLPGSLMLS [KCNS1]”: 11.7; for YSYSVMTLVIFCVL [HTR1D]: 15.3.
As for WLSLRKGRRRGAQGHLLP, the median enrichment turned out to be 28.3.
For the substance CRL [ACADSB], the median enrichment is 4.42.
Regarding “RAGPAPCPRSPLLSRPHPPPARPTRGATPPFESLAVGWTLPFPEAA [C1QL4]”, the median enrichment stood at 13.1.
The same measure for “LVARALGVLLEAPRASRIASQLPGQPTLLQPLTRTPVIRTGAPVPWSPPWAHVLTQAQQ [OVOL1]”: 9.61.
The same measure for FFFFFF [Phe06]: 9.02; for “WAPLPPTPYQLQSGGFHAQMALGVTSSFACGP [TPGS2]”: 10.1.
Consider TMEPPGGRQKKR [Degron FEM1C], for which the median enrichment is 0.496.
The same measure for “KRGCGSQGGLQGTGMSGGHQAQRKRKQREFTGPPEKSQSDVCRHLPIPASLARALLGPEQRRTCPTHTAIYSSRHRAPLPYSW [CRHR2]”: 4.02; for “WSQFPVTRTILATLFESIQVVWPMILLLTYLSTSSGPCPFGKLSFFLLHWGTGC [CLEC5A]”: 9.24.
Regarding “GGQCLPAPPLASSSAPRVPSVDPIRPAMASYSKMV [ACO2]”, the median enrichment came out at 0.291.
For the substance LRSLI [BAMBI], the median enrichment is 7.1.
The same measure for “NGPPLPPSPDAEMVMGSWRVGSEMKGTPQWAAGPIFPKPCHYLCEGGQVAEGSGCRLLYPLCLKHPPHRALVFTRFVLDSLNG [SLC13A5]”: 4.2; for CVWGLAPCSPGPHCSHTLRLGPPSLLWC [TOM1]: 9.33; for KNAQLL [ROR1]: 0.376.
In the case of SKTWPENPQVLQRKTELGKGESWKDGAD [ABHD15], the median enrichment worked out at 0.348.
For the substance RAS [ABCF2], the median enrichment stood at 0.408.
The same measure for QKVPLANCLEAQHNPKALFR [HIST1H1E]: 2.26; for KNF [PLXDC2]: 0.62.
The same measure for RAQLLRAQTPA [TNK1]: 1.82; for WRLIIYQEC [PKIB]: 7.89.
The same measure for STIEICSEM [PCDH11Y]: 0.758.
On to SKGQLPGKTRF [PHLDA1], for which the median enrichment worked out at 1.67.
With QISTNKSKTNSRIPDCPIPI [PTCHD3], the median enrichment amounted to 2.49.
To “QKGSGPGIHVGGRGRGGRREGRGEIHTVDTLTSWPKSLPQDLPDLHGQASYGGVSISFFLFLFPGLRASWGPRFTNSPTPLKL [AQP1]” belongs 6.27; to QTAKKEKLN [PTMA], 0.399; to LRASPRRDGKKIYKYISF [CYP2U1], 7.5.
As for “LGYRFWKHLSLGPKEVLLPFWASITQVVPVLTAEETSLPLFVLSPSFFNSV [MS4A8]”, the median enrichment came to 15.7.
To WALHPARS [IQCD] belongs 0.961; to LRKLILLIFMTNLYICF [RGS18], 14.1.

(Values after the supplement of paper PMC11502859.)
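Further: lentiviral eGFP-IRES-mCherry reporter pool sorted by FACS 96 h post-transduction, gated on mCherry-high cells, Illumina read counts normalized per million, median across four biological replicates.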
